Measurements: US20130315927A1 (Novartis, published 2013)
Changes are numbered by the printed parent chain. Where two headings read alike, the source gives them in different places.

T1: HIS tag
T1 construct: also called his6 tag; 6-His
T1 peptide: HHHHHH

T2: cynomolgus macaque PCSK9 with C-terminal his6 tag (cynomolgus monkey)
T2 chain: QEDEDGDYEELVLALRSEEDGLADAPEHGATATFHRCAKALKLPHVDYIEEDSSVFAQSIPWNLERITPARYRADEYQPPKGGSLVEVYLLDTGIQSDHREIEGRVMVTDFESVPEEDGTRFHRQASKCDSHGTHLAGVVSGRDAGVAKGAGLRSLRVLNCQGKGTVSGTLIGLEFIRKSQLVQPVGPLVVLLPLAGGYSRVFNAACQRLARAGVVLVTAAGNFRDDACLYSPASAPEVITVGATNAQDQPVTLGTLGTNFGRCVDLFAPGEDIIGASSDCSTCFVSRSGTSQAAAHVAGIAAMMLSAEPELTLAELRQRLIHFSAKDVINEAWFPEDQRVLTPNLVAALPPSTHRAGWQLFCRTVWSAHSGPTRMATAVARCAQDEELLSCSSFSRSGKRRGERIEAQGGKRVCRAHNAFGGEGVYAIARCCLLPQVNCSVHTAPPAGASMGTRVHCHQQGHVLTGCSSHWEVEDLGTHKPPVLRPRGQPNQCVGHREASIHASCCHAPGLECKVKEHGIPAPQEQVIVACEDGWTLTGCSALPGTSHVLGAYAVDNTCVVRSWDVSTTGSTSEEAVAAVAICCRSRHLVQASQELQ

T3: hFgfr4 hFc (human, UniProt P22455)
T3 sequence (fusion chain, looked up): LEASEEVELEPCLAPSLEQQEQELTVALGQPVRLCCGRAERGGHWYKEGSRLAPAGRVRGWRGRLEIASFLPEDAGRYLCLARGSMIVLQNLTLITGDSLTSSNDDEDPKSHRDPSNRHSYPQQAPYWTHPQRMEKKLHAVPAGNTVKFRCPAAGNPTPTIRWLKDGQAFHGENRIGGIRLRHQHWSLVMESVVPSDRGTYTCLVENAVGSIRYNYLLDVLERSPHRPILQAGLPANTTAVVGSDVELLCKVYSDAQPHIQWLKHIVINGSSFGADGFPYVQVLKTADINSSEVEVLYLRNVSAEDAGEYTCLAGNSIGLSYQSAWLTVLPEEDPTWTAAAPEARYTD

B1: fully Humaneered Fab Clone #44 (Fab, part only; not given: kappa light chain, V domains shown, part only)
VH: QITLKESGPVLVKPTETLTLTCTVSGFSLSTSGVGVGWIRQPPGKALEWLADIWWDDNKYYNPSLKSRLTISKDTSKNQVVLTMTNMDPVDTATYYCARITTEGGFAYWGQGTLVTVSS
B2: mouse monoclonal antibody MAB1 (antibody, V domains shown)
VH: QVTLKESGPGILQPSQTLSLTCSFSGFSLSTSGMGVGWIRQPSGEGLEWLADIWWDDNKYYNPSLKSRLTVSKDTSSNQVFLKITSVDTADTATYYCALITTEGGFAYWGQGTLVTVSA
VL: DIVLTQSPATLSVTPGDSVSLSCRASQSINNNLHWYQQKSHESPRLLIKFASRSISGIPSKFSGSGSGTDFTLSINSVETEDFGMYFCQQSNYWPLTFGAGTNLELI
notes: also called parent mouse monoclonal antibody; murine anti-human Pcsk9 IgG1-kappa monoclonal antibody
B3: Humaneered antibody MAB2 (antibody, human IgG1, V domains shown)
VH: B1 VH
VL: DIQMTQSPSSLSASVGDRVTITCRAGQRISHNLHWYQQKPDESPRLLINFASRLISGVPSRFSGSGSGTDFTLTISSLQPEDFATYYCQQSNYWPLTFGQGTKLEIK
B4: Humaneered antibody MAB3 (antibody, human IgG1, V domains shown)
VH: B1 VH with I2V, V10T, E16Q, P42S
VL: B3 VL

What was measured:
[1] = biological target: biotinylated PCSK9-Avi-His6 (human) (UniProt Q8NBP7); assay: ForteBio Octet bio-layer interferometry, biotinylated PCSK9-Avi-His6 on streptavidin sensors, Fab in solution
[2] = biological target: T4, recombinant human PCSK9 (aa 31-692) with C-terminal His6 tag (human, UniProt Q8NBP7 31-692); assay: solution equilibrium titration (SET), MSD electrochemiluminescence read-out
T4 construct: range 31-692; In the TR-FRET assay it carried a fluorophore (hPcsk9-AF); also called hPcsk9; hPCSK9
Experimental: Serial dilutions of Pcsk9 were prepared, and antibodies were added to each antigen concentration to reach a constant antibody concentration of 100 pM. 100 μL/well of each dilution mix was distributed in duplicate to a 96-well polypropylene microtiter plate (Greiner). The plate was sealed and incubated over night at room temperature. A 96-well Standard Bind microtiter plate (Meso Scale Discovery) was coated with 25 μL of 1 μg/mL Pcsk9 diluted in PBS. This plate was sealed and incubated over night at 4° C. After the incubation the antigen-coated Standard Bind micro titer plate was washed three times with 200 [L per well PBS/0.05% (w/v) Tween 20. Subsequently, the plate was blocked with 150 μL/well PBS/5% (w/v) BSA and incubated for one hour at room temperature with shaking. The washing steps were repeated and 25 μL/well of the antibody-antigen preparation from the polypropylene microtiter plate was transferred into the antigen-coated Standard Bind plate. The Standard Bind plate was incubated for 60 min at room temperature with shaking. […] Electrochemiluminescence signals were generated and detected by a Sector Imager 6000 (Meso Scale Discovery). […]

HIS tag = biological target: T1, HIS tag; assay: ELISA
[3] = biological target: T2, cynomolgus macaque PCSK9 with …; assay: solution equilibrium titration (SET), fit by the model of Piehler et al.
Experimental: (§1) The binding kinetics of the final selected candidates were analyzed using a Solution Equilibrium Titration (“SET”) assay. Briefly, serial dilutions of human, cyno, mouse, or rat Pcsk9 were prepared, and anti-Pcsk9 Ab was added to each antigen concentration to reach a constant antibody concentration of 100 pM. 100 μL/well of each dilution mix was distributed in duplicate to a 96-well polypropylene microtiter plate (Greiner). The plate was sealed and incubated over night at room temperature. A 96-well Standard Bind microtiter plate (Meso Scale Discovery) was coated with 25 μL of 1 μg/mL Pcsk9 diluted in PBS. This plate was sealed and incubated overnight at 4° C. After the incubation the antigen-coated Standard Bind micro titer plate was washed three times with 200 μL per well PBS/0.05% (w/v) Tween 20. Subsequently, the plate was blocked with 150 μL/well PBS/5% (w/v) BSA and incubated for one hour at room temperature with shaking. The washing steps were repeated and 25 μL/well of the antibody-antigen preparation from the polypropylene microtiter plate was transferred into the antigen-coated Standard Bind plate. The Standard Bind plate was incubated for 60 min at room temperature with shaking. After three additional washing steps, 25 μL of 1 μg/mL Sulfo-Tag-labeled goat anti-human-detection antibody (R32AJ-5, Meso Scale Discovery) diluted in PBS/1% (w/v) BSA/0.05% (w/v) Tween 20, buffer were added to each well and incubated one hour at room temperature with shaking. […] Electrochemiluminescence signals were generated and detected by a Sector Imager 6000 (Meso Scale Discovery).

murine PCSK9 = biological target: T5, murine PCSK9 (mouse, UniProt Q80W65 35-694, limits assumed); assay: as above
T5 construct: also called mouse Pcsk9
Experimental: as §1

[4] = biological target: T4, recombinant human PCSK9 (aa 31-692) …; assay: cell-based or functional assay
[5] = biological target: T4, recombinant human PCSK9 (aa 31-692) …; assay: cell-based or functional assay; remark: listed apart in the source
[6] = biological target: T4, recombinant human PCSK9 (aa 31-692) …; assay: TR-FRET competition, labelled hPcsk9 (8 nM) and labelled hLDL-R (1 nM); MAB1 antibody as competitor
Experimental: The percentage inhibition was calculated with the following formula: 100−[(normalized value of treated sample/averaged normalized value of untreated samples)×100]. The percentage inhibition dose response curves were plotted using Prism version 5 with the formula, Y=Bottom+(Top−Bottom)/(1+10̂((LogIC50−X)*HillSlope)) (GraphPad Prism Software).

hFgfr4 hFc [7] = biological target: T3, hFgfr4 hFc; assay: specificity ELISA, antigen coated at 88 ng per well, absorbance 650 nm
Experimental: (§2) For specificity ELISAs on purified human and mouse IgGs, a 384-well plate was coated with a panel of purified human or mouse antigens at 88 ng per well and incubated overnight at 4° C. The plate was blocked and washed as described above, then 22 μL of purified mouse or human anti-PCSK9 antibody diluted to 2 μg/mL in PBS was added to each well. The plate was incubated for 1 hr at 37° C. then washed with PBST. […] The plate was incubated for 1 hr at room temperature, then washed and developed as described above.

Rat (Pcsk9 homolog) = Rat (Pcsk9 homolog) (rat, UniProt P59996); assay: solution equilibrium titration (SET), fit by the model of Piehler et al.
Experimental: as §1

[8] = biological target: T4, recombinant human PCSK9 (aa 31-692) …; assay: solution equilibrium titration (SET): soluble human PCSK9 titrated against 100 pM antibody, free antibody captured on a Pcsk9-coated MSD plate; the concentration is that of human PCSK9
Experimental: Briefly, serial dilutions of human, cyno, mouse, or rat Pcsk9 were prepared, and anti-Pcsk9 Ab was added to each antigen concentration to reach a constant antibody concentration of 100 pM. 100 μL/well of each dilution mix was distributed in duplicate to a 96-well polypropylene microtiter plate (Greiner). The plate was sealed and incubated over night at room temperature. A 96-well Standard Bind microtiter plate (Meso Scale Discovery) was coated with 25 μL of 1 μg/mL Pcsk9 diluted in PBS. This plate was sealed and incubated overnight at 4° C. After the incubation the antigen-coated Standard Bind micro titer plate was washed three times with 200 μL per well PBS/0.05% (w/v) Tween 20. Subsequently, the plate was blocked with 150 μL/well PBS/5% (w/v) BSA and incubated for one hour at room temperature with shaking. The washing steps were repeated and 25 μL/well of the antibody-antigen preparation from the polypropylene microtiter plate was transferred into the antigen-coated Standard Bind plate. The Standard Bind plate was incubated for 60 min at room temperature with shaking. […] Electrochemiluminescence signals were generated and detected by a Sector Imager 6000 (Meso Scale Discovery).

[9] = biological target: T4, recombinant human PCSK9 (aa 31-692) …; assay: TR-FRET competition, hPcsk9-AF (8 nM) and hLDL-R-Eu (1 nM)
From the text: Data are representative of at least two independent experiments.

[10] = biological target: T4, recombinant human PCSK9 (aa 31-692) …; assay: solution equilibrium titration (SET), MSD electrochemiluminescence read-out; remark: listed apart in the source
Experimental: The binding kinetics of the final selected candidates were analyzed using a Solution Equilibrium Titration (“SET”) assay. Briefly, serial dilutions of human, cyno, mouse, or rat Pcsk9 were prepared, and anti-Pcsk9 Ab was added to each antigen concentration to reach a constant antibody concentration of 100 pM. 100 μL/well of each dilution mix was distributed in duplicate to a 96-well polypropylene microtiter plate (Greiner). The plate was sealed and incubated over night at room temperature. A 96-well Standard Bind microtiter plate (Meso Scale Discovery) was coated with 25 μL of 1 μg/mL Pcsk9 diluted in PBS. This plate was sealed and incubated overnight at 4° C. After the incubation the antigen-coated Standard Bind micro titer plate was washed three times with 200 μL per well PBS/0.05% (w/v) Tween 20. Subsequently, the plate was blocked with 150 μL/well PBS/5% (w/v) BSA and incubated for one hour at room temperature with shaking. The washing steps were repeated and 25 μL/well of the antibody-antigen preparation from the polypropylene microtiter plate was transferred into the antigen-coated Standard Bind plate. The Standard Bind plate was incubated for 60 min at room temperature with shaking. […] Electrochemiluminescence signals were generated and detected by a Sector Imager 6000 (Meso Scale Discovery).

hFgfr4 hFc [11] = biological target: T3, hFgfr4 hFc; assay: specificity ELISA, antigen coated at 88 ng per well, absorbance 650 nm; remark: listed apart in the source
Experimental: as §2

T5 sequence (Q80W65 other isoform, or with tags, fused parts or gaps limits assumed): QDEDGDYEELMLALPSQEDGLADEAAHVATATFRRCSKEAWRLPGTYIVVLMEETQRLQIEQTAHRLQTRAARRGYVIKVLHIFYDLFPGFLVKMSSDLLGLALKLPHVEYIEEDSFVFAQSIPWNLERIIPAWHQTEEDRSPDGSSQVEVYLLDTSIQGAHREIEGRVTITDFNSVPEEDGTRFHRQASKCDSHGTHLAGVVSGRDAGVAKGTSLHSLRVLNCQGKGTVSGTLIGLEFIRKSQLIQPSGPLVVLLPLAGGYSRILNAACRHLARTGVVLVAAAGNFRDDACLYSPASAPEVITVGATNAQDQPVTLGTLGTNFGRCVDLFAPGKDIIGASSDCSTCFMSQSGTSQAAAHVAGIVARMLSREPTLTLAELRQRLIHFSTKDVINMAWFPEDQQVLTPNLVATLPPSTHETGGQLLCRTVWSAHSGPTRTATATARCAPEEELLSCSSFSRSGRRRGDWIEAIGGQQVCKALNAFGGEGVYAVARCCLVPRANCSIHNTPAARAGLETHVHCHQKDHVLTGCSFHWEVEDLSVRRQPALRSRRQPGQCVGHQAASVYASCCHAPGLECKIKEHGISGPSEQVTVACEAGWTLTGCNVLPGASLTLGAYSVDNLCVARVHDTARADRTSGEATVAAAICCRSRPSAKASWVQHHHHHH
Chain of Rat (Pcsk9 homolog) (P59996 31-691 limits assumed): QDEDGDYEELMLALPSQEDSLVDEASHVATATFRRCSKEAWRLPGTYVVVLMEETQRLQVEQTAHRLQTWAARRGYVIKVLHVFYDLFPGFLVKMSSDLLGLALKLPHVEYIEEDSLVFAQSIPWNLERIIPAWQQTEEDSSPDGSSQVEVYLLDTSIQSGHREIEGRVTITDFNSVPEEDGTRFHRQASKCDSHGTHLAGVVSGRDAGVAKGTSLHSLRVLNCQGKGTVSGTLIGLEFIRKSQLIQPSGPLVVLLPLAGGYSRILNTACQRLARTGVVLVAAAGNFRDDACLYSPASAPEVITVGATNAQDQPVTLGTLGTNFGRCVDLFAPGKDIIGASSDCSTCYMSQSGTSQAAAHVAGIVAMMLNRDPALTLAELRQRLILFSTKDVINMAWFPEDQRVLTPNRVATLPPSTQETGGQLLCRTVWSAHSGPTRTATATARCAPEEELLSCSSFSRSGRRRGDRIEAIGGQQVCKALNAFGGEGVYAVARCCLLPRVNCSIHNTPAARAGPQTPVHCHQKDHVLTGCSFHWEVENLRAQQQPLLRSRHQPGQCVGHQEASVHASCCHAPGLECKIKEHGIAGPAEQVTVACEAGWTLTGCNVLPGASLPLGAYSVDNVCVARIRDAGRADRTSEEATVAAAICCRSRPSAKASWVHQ

| Binder | Kd [1] [nM] | Kd [2] [nM] | binding result (HIS tag) | Kd [3] [nM] | Kd (murine PCSK9) [nM] | DiI-LDL-uptake by HepG2 cells treated with exogenous hPcsk9, EC50 [4] [nM] | EC50, LDL-R protection (surface LDL-R on HepG2 cells, flow cytometry) [5] [nM] | IC50 [6] [nM] | binding result (hFgfr4 hFc [7]) | Kd (Rat (Pcsk9 homolog)) [nM] | EC50, LDL uptake (DiI-LDL uptake by HepG2 cells with hPCSK9, flow cytometry) [5] [nM] | IC50 (read off the curve) [8] [nM] | IC50 [9] [nM] | Kd [10] [nM] | binding result (hFgfr4 hFc [11]) |
| --- | --- | --- | --- | --- | --- | --- | --- | --- | --- | --- | --- | --- | --- | --- | --- |
| B1 | 22.3 | – | – | – | – | – | – | – | – | – | – | – | – | – | – |
| B2 | – | 0.27 | no binding | 0.23 | > 10000 | 194 | 309 | 77 | – | – | – | – | – | – | – |
| B3 | – | – | – | 0.4 | > 10000 | – | 324 | – | no binding (tested: 2 µg/mL (single concentration)) | > 10000 | 210 | ~0.3 | 20 | 0.26 | – |
| B4 | – | – | – | 0.4 | > 10000 | – | 300 | – | – | > 10000 | 168 | ~0.3 | 28 | 0.3 | no binding (tested: 2 µg/mL (single concentration)) |
